Laboratory results: the supplement of paper PMC9732359
± gives the uncertainty stated by the source.

Assay: protein stability index of a GFP-peptide fusion (yeast GPS) (PSI 1-4); higher = more stable; sorted into four equal gates, so the index is relative within each strain
Method in brief: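 Plasmids isolated from each sorting gate were PCR-amplified and Illumina-sequenced, and barcodes assigned the reads to strains. The gates, four of equal size, were set by GFP/Cherry fluorescence ratio on mid-log cultures in leucine-free medium. These cultures were yeast carrying a pooled library of tiled 17-residue yeast protein peptides fused downstream of GFP on a plasmid that also expresses Cherry. The protein stability index is the sum of every gate's read frequency times its gate number.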

Sequence	protein stability index (doa10∆)	protein stability index (pdr5∆)	protein stability index (san1∆)	protein stability index (ubr1∆)
PTQTKGNDAKPAKVEDV [YLR335W/NUP2]	3.21 ± 0.057	3.25 ± 0.053	3.27 ± 0.039	3.1 ± 0.047
DNTSHDEQDDDNVNSTT [BRN1]	3 ± 0.073	3.19 ± 0.088	3.17 ± 0.1	3.23 ± 0.062
DIEIVRVNKNAPAVELH [FAS2]	2.87 ± 0.061	3.08 ± 0.064	3.24 ± 0.091	2.96 ± 0.049
MGAINNNIPSLTSFAEE [SNF6]	3.2 ± 0.13	3.43 ± 0.1	3.37 ± 0.15	3.35 ± 0.1
AKLLQENDTTLVKTKEL [FAS1]	2.66 ± 0.14	2.08 ± 0.27	–	–
MFIEEPTRMVRVAKGSG [SRP54]	3.09 ± 0.19	2.95 ± 0.23	2.75 ± 0.24	3.26 ± 0.15
FRGNISQPKIGYGSNKK [RPL32]	2.88 ± 0.094	2.88 ± 0.06	2.88 ± 0.067	2.89 ± 0.049
VRNACKRLIAHDWLNAL [YCG1]	2.74 ± 0.081	2.97 ± 0.1	2.83 ± 0.075	3.19 ± 0.064
TNPKLKSEFDDLSLNIH [YMR129W/POM152]	2.96 ± 0.071	3.14 ± 0.056	3.02 ± 0.038	3.17 ± 0.05
SCTFWSDKESNAYGFIE [YJL039C/NUP192]	2.9 ± 0.079	2.65 ± 0.083	2.83 ± 0.07	3.26 ± 0.09
GKRQVLLRPSSKVIIKF [RPS22B]	2.83 ± 0.1	2.21 ± 0.055	3.25 ± 0.057	2.15 ± 0.049
GKIEKIAQSKKKNNKIK [SRP21]	3.11 ± 0.094	3.02 ± 0.078	3.01 ± 0.066	3.14 ± 0.057
NALDKLRNNLNSLIEEI [YCG1]	3.22 ± 0.12	3.26 ± 0.1	2.27 ± 0.21	3.08 ± 0.092
FEFQYLTIGVKFFMKHG [SRB5]	1.18 ± 0.046	1.34 ± 0.047	1.21 ± 0.066	1.18 ± 0.035
LLENFANFKTSKKYQLA [RRP6]	2.09 ± 0.25	2.57 ± 0.2	2.27 ± 0.21	2.33 ± 0.17
QGDEALSVDDIRGAVGN [RTT102]	3.35 ± 0.096	3.49 ± 0.12	3.24 ± 0.059	3.41 ± 0.085
IRAHQTELTHHLLPRNE [QCR7]	2.99 ± 0.1	3.2 ± 0.072	3.02 ± 0.064	2.92 ± 0.065
DSTDNENSGKEMDEKSY [LIN1]	–	3.26 ± 0.14	2.88 ± 0.29	3.49 ± 0.14
TVELQVGLKNYDPQRDK [RPL1A]	3.05 ± 0.091	3.12 ± 0.082	3.12 ± 0.094	3.18 ± 0.076
NRIIKADDHASVQINVA [RPS21A]	2.89 ± 0.055	3.05 ± 0.052	2.99 ± 0.052	3.11 ± 0.039
SENVFEGLTYKYPARRI [SSN3]	3.18 ± 0.11	3 ± 0.17	2.62 ± 0.17	2.86 ± 0.089
FFGPTYYQRLRHMVDDK [RPB2]	1.24 ± 0.046	1.26 ± 0.046	1.72 ± 0.1	1.36 ± 0.053
KKSKRLDKVGKKKGGKK [LRP1]	3.16 ± 0.15	2.43 ± 0.27	2.99 ± 0.12	3.24 ± 0.21
GGDTCSSDGALCMDSSY [POP1]	2.24 ± 0.054	2.54 ± 0.051	1.83 ± 0.082	2.27 ± 0.036
TIEQSPRMIELMEFLCV [ECM29]	–	–	3.11 ± 0.14	3.25 ± 0.13
EAAFRNIKTIAETLAEE [RPS5]	2.79 ± 0.084	3.28 ± 0.076	3.25 ± 0.053	2.84 ± 0.046
HFAWLPTHIWNAKRSHM [POP1]	1.99 ± 0.033	1.67 ± 0.035	1.45 ± 0.059	1.5 ± 0.026

Sequence	protein stability index (doa10∆)	protein stability index (pdr5∆)	protein stability index (san1∆)	protein stability index (ubr1∆)
YNNRSLLDFNTALKQYE [RPN6]	3.32 ± 0.097	3.04 ± 0.084	3.15 ± 0.067	3.13 ± 0.099
IEEAKSIRRQDYINELS [REC8]	–	3.11 ± 0.22	3.39 ± 0.16	3.14 ± 0.17
NVVEVMDMNEIEDKENS [RPT5]	3.02 ± 0.087	2.58 ± 0.066	2.26 ± 0.067	2.71 ± 0.059
DEKNKNNNEDNENNNNS [MED2]	3.11 ± 0.084	3.39 ± 0.069	3.17 ± 0.062	3.28 ± 0.064
DEATVPNTRDAESEAIT [SWI3]	3.09 ± 0.077	3.15 ± 0.06	3.18 ± 0.066	3.23 ± 0.052
ASKKSGGDVVKFQKLLQ [SMC4]	3.42 ± 0.15	3.64 ± 0.12	3.19 ± 0.13	3.4 ± 0.17
LWALLNFLLPDIFGDSE [ISW2]	2.15 ± 0.05	1.98 ± 0.05	2.52 ± 0.07	2.64 ± 0.043
PRGVLLYGPPGTGKTML [RPT3]	3.07 ± 0.089	2.57 ± 0.11	2.9 ± 0.081	2.72 ± 0.074
DLCDVVESKFTEKIKSM [RPC19]	3.43 ± 0.2	2.9 ± 0.11	3.33 ± 0.1	3.44 ± 0.077
FDFLDDGTAQLSNNKTD [YJR042W/NUP85]	3.38 ± 0.23	3.52 ± 0.21	3.5 ± 0.099	3.39 ± 0.12
SYYELETIIFDSELNRA [RRI1]	2.96 ± 0.11	3.13 ± 0.075	2.97 ± 0.056	2.93 ± 0.056
TFIDKERHQKQLNEKLV [YCS4]	2.62 ± 0.13	2.6 ± 0.16	2.81 ± 0.078	2.65 ± 0.093
IEMKDVSSKPSKPESSV [MED1]	3.15 ± 0.12	3.33 ± 0.11	2.89 ± 0.076	3.25 ± 0.064
PITSETAMKKVEDGNIL [RPL25]	3.05 ± 0.16	3.18 ± 0.095	3.12 ± 0.22	3.24 ± 0.15
SMNVTLGVPRIKEIINA [RPO31]	2.71 ± 0.066	2.56 ± 0.048	2.13 ± 0.065	2.47 ± 0.046
TDLSGKETIARVTGGMK [RPS14A]	3.06 ± 0.087	3.12 ± 0.082	2.79 ± 0.056	2.92 ± 0.061
AAEPMDSKMIQDLSRNT [SNU114]	2.93 ± 0.18	–	3.18 ± 0.19	–
KKLEITSDGALSVMCGC [RPR2]	2.63 ± 0.047	2.82 ± 0.054	2.8 ± 0.043	2.933 ± 0.029
SSVVSEPKKPSFTFASS [YOR098C/NUP1]	3 ± 0.049	3.12 ± 0.038	3.01 ± 0.044	2.92 ± 0.034
HLAICLDIINPGSVEEV [YDL116W/NUP84]	2.66 ± 0.098	2.77 ± 0.089	2.46 ± 0.13	3.45 ± 0.088
ILNLYSSAHLIRINDEP [YML103C/NUP188]	1.99 ± 0.096	2.18 ± 0.18	1.8 ± 0.26	1.77 ± 0.092
LNEKFQELRKKVNPNIM [SMC2]	–	2.61 ± 0.27	2.98 ± 0.2	2.81 ± 0.15
LTYAQQQLNKQRQDFER [SNF6]	2.49 ± 0.073	2.44 ± 0.071	2.17 ± 0.083	2.6 ± 0.038
TPYSNESGLVNADLDVK [RPO21]	2.75 ± 0.054	2.96 ± 0.073	3.02 ± 0.056	2.87 ± 0.046
NKENDNVPSTKFNAAPE [SNF12]	3.38 ± 0.055	3.36 ± 0.068	3.17 ± 0.06	3.14 ± 0.056
FLVRYACEPTAEKFVPI [SIR3]	2.55 ± 0.23	2.9 ± 0.097	2.75 ± 0.11	2.91 ± 0.1
STTQEILEFITAAQVAN [RPC34]	2.65 ± 0.1	1.71 ± 0.056	1.9 ± 0.088	1.19 ± 0.048

Sequence	protein stability index (doa10∆)	protein stability index (pdr5∆)	protein stability index (san1∆)	protein stability index (ubr1∆)
RYFFYLSKINAIQLDYS [RPN3]	1.31 ± 0.057	1.23 ± 0.058	1.34 ± 0.15	1.33 ± 0.044
RKSYKNQIADLSGKFST [ROX3]	2.76 ± 0.082	2.94 ± 0.063	2.84 ± 0.06	2.92 ± 0.036
NRLSNPQKNLLLKGPAS [YOR098C/NUP1]	2.96 ± 0.049	3.05 ± 0.038	2.68 ± 0.054	2.94 ± 0.056
SEENIGSGLLKLSEIIL [SWI1]	3.2 ± 0.074	3.02 ± 0.066	2.92 ± 0.048	3.37 ± 0.06
LNECLKTIQINNEKVVQ [YML031W/NDC1]	1.96 ± 0.12	2.27 ± 0.073	1.29 ± 0.16	1.11 ± 0.1
IEFEYDPWNKLKHTDYW [RPB3]	2.85 ± 0.1	2.69 ± 0.17	2.81 ± 0.089	3.06 ± 0.089
LALERMVPKRSTIITKA [YCS4]	1.28 ± 0.1	1.47 ± 0.066	1.16 ± 0.11	1.08 ± 0.091
PNRIKLSKEVPFSYLID [SRB5]	2.44 ± 0.062	2.15 ± 0.058	1.98 ± 0.1	2.12 ± 0.06
LISDQLLEFFELVFSKG [YML103C/NUP188]	2.57 ± 0.077	2.71 ± 0.11	3.1 ± 0.066	2.9 ± 0.057
CFSQENIEEMARVILYL [SIN4]	2.47 ± 0.083	2.76 ± 0.14	2.79 ± 0.095	2.76 ± 0.054
IDRPKHELSRAELEELE [SMD2]	3.27 ± 0.083	3.27 ± 0.15	3.32 ± 0.07	3.38 ± 0.1
KYKPTPLYVMDEIDAAL [SMC4]	2.45 ± 0.085	3.06 ± 0.11	3 ± 0.07	2.81 ± 0.057
AAIKDLDDFGEEELFEV [RRP43]	2.46 ± 0.11	2.49 ± 0.14	2.17 ± 0.13	–
NEENDLDVDPAKRIRVS [RPB2]	3.01 ± 0.07	3 ± 0.07	3.11 ± 0.12	3.02 ± 0.047
QFLRLIFVSILSDRANK [ARP9]	1.64 ± 0.065	1.65 ± 0.075	2.18 ± 0.087	1.2 ± 0.027
AFSYEQAQLRIDDKTQN [DIS3]	3.32 ± 0.21	2.81 ± 0.14	2.87 ± 0.12	2.25 ± 0.24
KGLIKVNGSPITLVEPE [RPS16A]	3.09 ± 0.095	3.42 ± 0.13	3.06 ± 0.082	3.24 ± 0.11
QQNYSKVLLPSINISCV [SWI1]	1.85 ± 0.067	1.71 ± 0.059	1.87 ± 0.16	2.53 ± 0.054
DKVDDYTPEEVDKIERE [SMC4]	1.17 ± 0.11	1.45 ± 0.12	1.32 ± 0.22	1.28 ± 0.11
GSNYNPYFPGGSIAMAR [CYT1]	2.08 ± 0.082	2.4 ± 0.13	2.59 ± 0.093	2.35 ± 0.048
ARQFGYVILTTSAGIMD [RPS22A]	1.37 ± 0.048	1.33 ± 0.045	1.17 ± 0.094	1.25 ± 0.037
MEDKISEFLNVPFESLQ [YIL149C/MLP2]	3.18 ± 0.09	3.35 ± 0.079	3.33 ± 0.067	3.06 ± 0.057
SNKKETKKKRKPTEVND [ITC1]	3.15 ± 0.078	3.31 ± 0.074	3.26 ± 0.07	3.23 ± 0.062
FIYGEDGMDAAHIEKQS [RPO21]	3.31 ± 0.069	3.29 ± 0.084	3.38 ± 0.054	3.36 ± 0.043
YLKESKRKYDEITHPPS [SWI3]	2.59 ± 0.17	3.39 ± 0.15	3.02 ± 0.1	3.05 ± 0.11
